B1: reference wild-type (WT) peptide (unmodified NW peptide) prohibitin 1 (PHB1), endogenous in human blood monocytes [human (endogenous in blood monocytes)] (parent)
chain 1: NWYLPWLGTNDW
chain 2: MAAKVFESIGKFGLALAVAGGVVNSALYNVDAGHRAVIFDRFRGVQDIVVGEGTHFLIPWVQKPIIFDCRSRPRNVPVITGSKDLQNVNITLRILFRPVASQLPRIFTSIGEDYDERVLPSITTEILKSVVARFDAGELITQRELVSRQVSDDLTERAATFGLILDDVSLTHLTFGKEFTEAVEAKQVAQQEAERARFVVEKAEQQKKAAIISAEGDSKAAELIANSLATAGDGLIELRKLEAAEDIAYQLSRSRNITYLPAGQSVLLQLPQ

Variants of: B1
Experiment: flow cytometry competition assay on monocytes
Settings: with prohibitin 1 (PHB1)
[1] = competitor 2.5 µg/ml, experimental conditions as in Figure 7, parent: 45, read off a plot
[2] = competitor 5 µg/ml, experimental conditions as in Figure 7, parent: 60, read off a plot
[3] = competitor 10 µg/ml, experimental conditions as in Figure 7, parent: 85, read off a plot
[4] = competitor 20 µg/ml, experimental conditions as in Figure 7, parent: 93, read off a plot
[5] = competitor 2.5 µg/ml, NW peptide 0.05 µg/mL, parent: 50, read off a plot
[6] = competitor 5 µg/ml, NW peptide 0.05 µg/mL, parent: 82, read off a plot
[7] = competitor 10 µg/ml, NW peptide 0.05 µg/mL, parent: 92, read off a plot
[8] = competitor 20 µg/ml, NW peptide 0.05 µg/mL, parent: 95, read off a plot

Row | Variant | screen value [1] [%] | screen value [2] [%] | screen value [3] [%] | screen value [4] [%] | screen value [5] [%] | screen value [6] [%] | screen value [7] [%] | screen value [8] [%]
1 | chain 1 NWYVPWVGTNDW [chain 1 L4V L7V] | 50 | 55 | 86 | 95 |  |  |  | 
2 | chain 1 NWYLAWLGTNDW [chain 1 P5A] |  |  |  |  | 0 | 12 | 30 | 65
3 | chain 1 AWYLPWLGTNDW [chain 1 N1A] |  |  |  |  | 30 | 45 | 67 | 90
4 | chain 1 NWYLPWAGTNDW [chain 1 L7A] |  |  |  |  | 0 | 0 | 0 | 2.5
5 | chain 1 NWYLPWLGTADW [chain 1 N10A] |  |  |  |  | 56 | 70 | 86 | 95
6 | chain 1 NWYLPWLGTNAW [chain 1 D11A] |  |  |  |  | 47 | 80 | 85 | 98
7 | chain 1 NWYLPWLGANDW [chain 1 T9A] |  |  |  |  | 10 | 20 | 60 | 80
8 | chain 1 NWYLPWLATNDW [chain 1 G8A] |  |  |  |  | 0 | 10 | 45 | 65
9 | chain 1 NWYAPWLGTNDW [chain 1 L4A] |  |  |  |  | 0 | 0 | 2.5 | 0

Second part, the variant after the results:

Row | screen value [1] [%] | screen value [2] [%] | screen value [3] [%] | screen value [4] [%] | screen value [5] [%] | screen value [6] [%] | screen value [7] [%] | screen value [8] [%] | Variant
10 |  | 7 | 3 | 4 |  |  |  |  | chain 1 NFYLPFLGTNDF [chain 1 W2F W6F W12F]
11 |  |  |  |  | 23 | 54 | 56 | 68 | chain 1 NWALPWLGTNDW [chain 1 Y3A]
12 |  |  |  |  | 0 | 9 | 10 | 8 | chain 1 NWYLPWLGTNDA [chain 1 W12A]
13 |  |  |  |  | 0 | 0 | 8 | 12 | chain 1 NWYLPALGTNDW [chain 1 W6A]
14 | 5 |  |  | 3 |  |  |  |  | chain 1 NYYLPYLGTNDY [chain 1 W2Y W6Y W12Y]
15 |  |  |  |  | 0 | 0 | 0 | 2.5 | chain 1 NAYLPWLGTNDW [chain 1 W2A]
